Source: article PMC4933879
“And” between values parts separate entries of the source, which are not always exact repeats. Equal entries are not always repeated.

Key:
[1] = molecular target: acrylodan-labeled A-C2 (Q26C mutant); assay: other fluorescence titration; fixed acrylodan-labeled DARPin (100 nM D1 or 15 nM high affinity DARPins) titrated with tubulin; 20 mM K-phosphate pH 7.2, 100 mM KCl, 1 mM MgCl2, 0.5 mM EGTA, 10 μM GDP, 20 °C; 1:1 quadratic fit
[2] = molecular target: acrylodan-labeled D1 (Q26C mutant); assay: as above
[3] = molecular target: acrylodan-labeled TM-3 variant (Q26C mutant); assay: as above
[4] = molecular target: subtilisin-digested acrylodan-labeled TM-3 (C-cap-truncated TM-3); assay: as above
DARPin D1 = assay: SPR; Proteon XPR36; DARPins immobilised through their N-terminal His-tag on Ni2+-activated tris-NTA (HTG) sensor chip, tubulin injected at five concentrations; 20 °C; buffer of the fluorescence experiments with 20 μM EGTA and 0.005% Tween 20; Langmuir fit; for D1 also KD from the plateau values
TM-3 1-149 = assay: as above
[5] = molecular target: acrylodan-labeled A-C2 (Q26C mutant); assay: fluorescence kinetics (stopped-flow and spectrofluorometer); koff: chase of acrylodan-labeled DARPin from tubulin by excess unlabeled DARPin (stopped-flow for D1, spectrofluorometer for high affinity DARPins), mono-exponential fit; kon: at least 5-fold excess of tubulin added to 50 nM labeled DARPin in a stopped-flow system, pseudo-first-order, slope of kobs against tubulin concentration
[6] = molecular target: acrylodan-labeled D1 (Q26C mutant); assay: as above
[7] = molecular target: acrylodan-labeled TM-3 variant (Q26C mutant); assay: as above
[8] = molecular target: subtilisin-digested acrylodan-labeled TM-3 (C-cap-truncated TM-3); assay: as above

Chain of DARPin D1 (main, as listed by the source): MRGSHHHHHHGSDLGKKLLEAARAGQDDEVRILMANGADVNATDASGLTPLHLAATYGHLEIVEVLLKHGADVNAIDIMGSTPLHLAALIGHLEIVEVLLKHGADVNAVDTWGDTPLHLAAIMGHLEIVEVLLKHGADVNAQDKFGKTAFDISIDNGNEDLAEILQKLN
Chain of TM-3 1-149 (main, as listed by the source): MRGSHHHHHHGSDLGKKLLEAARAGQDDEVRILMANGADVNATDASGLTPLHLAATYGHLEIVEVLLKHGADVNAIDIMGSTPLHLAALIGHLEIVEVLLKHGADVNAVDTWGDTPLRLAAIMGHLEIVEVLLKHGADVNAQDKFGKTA

αβ tubulin heterodimer (tubulin) (complex)
Kd [1]: 0.82 nM | Kd [2]: 127 nM | Kd [3]: 0.9 nM | Kd [4]: 1.03 nM | Kd (DARPin D1): 300 nM and 275 nM | koff (DARPin D1): 0.22 s⁻¹ | kon (DARPin D1): 800000 M⁻¹ s⁻¹ | Kd (TM-3 1-149): 1.6 nM | koff (TM-3 1-149): 0.0027 s⁻¹ | kon (TM-3 1-149): 1.7e+06 M⁻¹ s⁻¹ | Kd [5]: 0.444 nM | koff [5]: 0.0071 s⁻¹ | kon [5]: 1.6e+07 M⁻¹ s⁻¹ | Kd [6]: 115 nM | koff [6]: 1.49 s⁻¹ | kon [6]: 1.3e+07 M⁻¹ s⁻¹ | Kd [7]: 0.269 nM | koff [7]: 0.0049 s⁻¹ | kon [7]: 1.82e+07 M⁻¹ s⁻¹ | Kd [8]: 0.172 nM | koff [8]: 0.0046 s⁻¹ | kon [8]: 2.67e+07 M⁻¹ s⁻¹
